Where a chain is given by its changes, count along the chain named. One block for each binder: values may come before it.
Assays:
monkey GPC3-His protein [1] = molecular target: T1, monkey GPC3-His protein (monkey); experiment: ELISA, monkey GPC3-His coated;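 note: Plate-coated antigen at 1 µg/mL, antibody binding 2 h at 37 °C, detected with HRP-labeled secondary antibody and TMB, absorbance at 450 nm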
T1 construct: Bought recombinant protein; also called monkey GPC3 protein
Description: The specific method is described as follows: The antigen protein was diluted with PBS to a final concentration of 1 μg/mL, and the diluent was added to a 96-well ELISA plate at 50 μL/well. The plate was sealed with a plastic film and incubated at 4° C. overnight, washed twice with PBS the next day, and a blocking solution [PBS+2% (w/w) BSA] was added for blocking at room temperature for 2 h. […] After incubation at 37° C. for 2 h, the plate was washed 3 times with PBS. A horseradish peroxidase (HRP)-labeled secondary antibody (purchased from Merck, Cat. No. AP113P) was added for incubation at 37° C. for 1 h, and the plate was washed 5 times with PBS. A TMB substrate was added at 50 μL/well for incubation at room temperature for 10 min, then a stop solution (1.0M HCl) was added at 50 μL/well. An ELISA plate reader (Multimode Plate Reader, EnSight, purchased from Perkin Elmer) was used to read OD_{450 nm} values, with results as shown in Table 4 to Table 6, FIG. 1A, FIG. 1B, and FIG. 1C.

human GPC3-His protein = molecular target: T2, human GPC3-His protein (human, UniProt P51654 25-559); experiment: SPR, antibody captured on Protein A chip, human GPC3-His analyte;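 note: measured at 25 °C flow cell, human GPC3-His injected at five concentrations up to 200 nM, 240 s association, up to 600 s dissociation, double-referenced, fitted to Langmuir 1:1 model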
T2 construct: also called human GPC3 protein; not shown: His tag

monkey GPC3-His protein [2] = molecular target: T1, monkey GPC3-His protein; experiment: SPR, antibody captured on Protein A chip, monkey GPC3-His analyte;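 note: run at 25 °C with 240 s association and up to 600 s dissociation, double-referenced, kinetics fitted to a 1:1 Langmuir binding model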
Description: The flow cell was set at 25° C. The sample block was set at 16° C. Both were pretreated with the running buffer. In each cycle, first, the antibody to be tested was captured using the Protein A chip, and then a single concentration of GPC3 antigen protein was injected. […] The association was determined by injecting different concentrations of human GPC3-His in the solution and maintaining for 240 s, wherein the flow rate was 30 μL/min, and the protein was diluted at a 1:1 dilution ratio from 200 nM to obtain 5 concentrations in total. The dissociation phase was monitored for up to 600 s and triggered by switching from the sample solution to the running buffer. The surface was regenerated by washing with 10 mM glycine solution (pH 1.5) at a flow rate of 30 μL/min for 30 s. The difference in bulk refractive index was corrected by subtracting the responses obtained from the goat anti-human Fc surface. Blank injections (double reference) were also subtracted. To calculate the apparent KD and other kinetic parameters, the Langmuir 1:1 model was used.

[3] = molecular target: T3, monkey GPC3 on HEK293T-monkey GPC3 cells (monkey); experiment: FACS on HEK293T-monkey GPC3 cells;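 note: flow cytometry binding of test antibodies to the cells, read as mean fluorescence intensity, with half-maximal concentration taken from fitted curves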
T3 construct: whole, on cells

OD450 at 0.0001 nM (monkey GPC3-His protein [1]): 0.04 OD450
OD450 at 0.001 nM (monkey GPC3-His protein [1]): 0.05 OD450
OD450 at 0.01 nM (monkey GPC3-His protein [1]): 0.16 OD450
OD450 at 0.1 nM (monkey GPC3-His protein [1]): 0.56 OD450
OD450 at 1 nM (monkey GPC3-His protein [1]): 1.52 OD450
OD450 at 10 nM (monkey GPC3-His protein [1]): 1.7 OD450
OD450 at 100 nM (monkey GPC3-His protein [1]): 1.82 OD450
Kd (human GPC3-His protein): 2.54 nM
koff (human GPC3-His protein): 7.28e-05 s⁻¹
kon (human GPC3-His protein): 28700 M⁻¹ s⁻¹
Kd (monkey GPC3-His protein [2]): 1.24 nM
koff (monkey GPC3-His protein [2]): 4.74e-05 s⁻¹
kon (monkey GPC3-His protein [2]): 38200 M⁻¹ s⁻¹
B1: F1.3.9 (antibody, human IgG1, kappa, V domains shown)
VH: QVQLQQPGTELVKPGASVKLSCKASGYTFTSYWIHWVKQRPGQGLEWIGNINPPNAGTNYNEKFKSKATLTVDKSSSTAYMQLSSLTSEDSAVYYCARGRWLLHDYWGQGTTLTVSS
VL: DIQMTQSPASLSISVGETVTITCRASENIYSNLAWYQQKQGKSPQLLVYGTKNLAEGVPSRFSGSGSGTQYSLKINSLQSEDFGNYYCQHFWGTPYTFGGGTKLEILR
notes: Human-murine chimeric antibody

OD450 at 0.0001 nM (monkey GPC3-His protein [1]): 0.05 OD450
OD450 at 0.001 nM (monkey GPC3-His protein [1]): 0.08 OD450
OD450 at 0.01 nM (monkey GPC3-His protein [1]): 0.35 OD450
OD450 at 0.1 nM (monkey GPC3-His protein [1]): 1.61 OD450
OD450 at 1 nM (monkey GPC3-His protein [1]): 2.31 OD450
OD450 at 10 nM (monkey GPC3-His protein [1]): 2.46 OD450
OD450 at 100 nM (monkey GPC3-His protein [1]): 2.67 OD450
EC50 [3]: 0.27 nM
Max MFI [3]: 7620 MFI
B2: F1.42.8 (antibody, human IgG1, kappa, V domains shown)
VH: HVQLQQPGAELVKPGASVKLSCKASGYTFTSYWMHWVRQRPGQGLEWIEMIHPNSGSTNYNEKFKSKATLTVDKSSSTAYMQLSSLTSEDSAVYYCARGNYNSSLYAMDYWGQGTSVTVSS
VL: DIQMTQTTSSLSASLGDRVTISCSASQGISNYLNWYQQKPDGTVKLLIYYASNLHSGVPSRFSGSGSGTAYSLTISNLEPEDIATYYCQQYSILPYTFGGGTKLEIKR
notes: as for B1

OD450 at 0.0001 nM (monkey GPC3-His protein [1]): 0.05 OD450
OD450 at 0.001 nM (monkey GPC3-His protein [1]): 0.06 OD450
OD450 at 0.01 nM (monkey GPC3-His protein [1]): 0.18 OD450
OD450 at 0.1 nM (monkey GPC3-His protein [1]): 0.73 OD450
OD450 at 1 nM (monkey GPC3-His protein [1]): 1.14 OD450
OD450 at 10 nM (monkey GPC3-His protein [1]): 1.27 OD450
OD450 at 100 nM (monkey GPC3-His protein [1]): 1.47 OD450
EC50 [3]: 0.32 nM
Max MFI [3]: 5700 MFI
B3: F1.73.9 (antibody, human IgG1, kappa, V domains shown)
VH: QVQLKQSGAELVRPGASVKLSCKASGYTFTDYYINWVKQRPGQGLEWIARIYPGSGNTYYNEKFKGKATLTAEKSSSTAYMQFSSLTSEDSAVYFCACSTYYTMDYWGQGTSVTVSS
VL: QIVLTQSPAIMSASLGERVTMTCTASSGVSSSYLHWYQQKPGSSPKLWIYTTSNLASGVPARFSGSGSGTSYSLTISSMEAEDAATYYCHQYHRSPYTFGGGTKLEIKR
notes: as for B1

OD450 at 0.0001 nM (monkey GPC3-His protein [1]): 0.21 OD450
OD450 at 0.001 nM (monkey GPC3-His protein [1]): 0.36 OD450
OD450 at 0.01 nM (monkey GPC3-His protein [1]): 0.39 OD450
OD450 at 0.1 nM (monkey GPC3-His protein [1]): 0.56 OD450
OD450 at 1 nM (monkey GPC3-His protein [1]): 0.64 OD450
OD450 at 10 nM (monkey GPC3-His protein [1]): 0.66 OD450
OD450 at 100 nM (monkey GPC3-His protein [1]): 1.06 OD450
Kd (human GPC3-His protein): 46 nM
koff (human GPC3-His protein): 0.00129 s⁻¹
kon (human GPC3-His protein): 28000 M⁻¹ s⁻¹
Kd (monkey GPC3-His protein [2]): 44 nM
koff (monkey GPC3-His protein [2]): 0.00156 s⁻¹
kon (monkey GPC3-His protein [2]): 35500 M⁻¹ s⁻¹
B4: F1.62.9 (antibody, human IgG1, kappa, V domains shown)
VH: QVQLQQSDAELVKPGASVKISCKVSGYIFTDHTIHWMKQRPEQGLEWIGYIYPRDGSIKYNENFKGKATLTADKSSSATYMQLNSLTSEDSAVYFCARPIYYDYAYYFDYWGQGTTLTVSS
VL: DVVMTQSPLSLPVSLGDQASISCRSRQSLVHSNGNTYLHWYLQKPGQSPKVLIYKVSNRFSGVPDRFSGSGSGTDFTLKISRVEAEDLGVYFCSQSTHVPYTFGGGTKLEIKR
notes: as for B1

OD450 at 0.0001 nM (monkey GPC3-His protein [1]): 0.23 OD450
OD450 at 0.001 nM (monkey GPC3-His protein [1]): 0.27 OD450
OD450 at 0.01 nM (monkey GPC3-His protein [1]): 0.65 OD450
OD450 at 0.1 nM (monkey GPC3-His protein [1]): 1.9 OD450
OD450 at 1 nM (monkey GPC3-His protein [1]): 2.3 OD450
OD450 at 10 nM (monkey GPC3-His protein [1]): 2.24 OD450
OD450 at 100 nM (monkey GPC3-His protein [1]): 2.34 OD450
Kd (human GPC3-His protein): 0.6 nM
koff (human GPC3-His protein): 0.000242 s⁻¹
kon (human GPC3-His protein): 404000 M⁻¹ s⁻¹
Kd (monkey GPC3-His protein [2]): 0.353 nM
koff (monkey GPC3-His protein [2]): 0.000221 s⁻¹
kon (monkey GPC3-His protein [2]): 628000 M⁻¹ s⁻¹
B5: F2.92.1 (antibody, human IgG1, kappa, V domains shown)
VH: QVQLQQSGAELVRPGASVKLSCKASGYIFSDYEIHWVKQTPVHGLECIGAVDPETGGTAYNQKFKGKATLTADKSSSTAYMELRSLTSEDSAVYFCTRFYSFAYWGQGTLVTVST
VL: B4 VL with S7T, A19G, R26S, H39Q, V51L, S94C, P100L, Y101P
notes: as for B1

OD450 at 0.0001 nM (monkey GPC3-His protein [1]): 0.21 OD450
OD450 at 0.001 nM (monkey GPC3-His protein [1]): 0.34 OD450
OD450 at 0.01 nM (monkey GPC3-His protein [1]): 0.66 OD450
OD450 at 0.1 nM (monkey GPC3-His protein [1]): 1.98 OD450
OD450 at 1 nM (monkey GPC3-His protein [1]): 2.36 OD450
OD450 at 10 nM (monkey GPC3-His protein [1]): 2.28 OD450
OD450 at 100 nM (monkey GPC3-His protein [1]): 2.35 OD450
Kd (human GPC3-His protein): 6.97 nM
koff (human GPC3-His protein): 0.0021 s⁻¹
kon (human GPC3-His protein): 302000 M⁻¹ s⁻¹
Kd (monkey GPC3-His protein [2]): 4.28 nM
koff (monkey GPC3-His protein [2]): 0.00219 s⁻¹
kon (monkey GPC3-His protein [2]): 512000 M⁻¹ s⁻¹
B6: F2.39.2 (antibody, human IgG1, kappa, V domains shown)
VH: QVQLQQSGAELVRPGASVKVSCKASGYTFTDYEMHWMKQTPVHGLEWIGANEPETGRSAYDQKFKGKATLTADKSSSTAYMELRSLTSEDSAVYYCTRFYSFAYWGQGTLVTVSA
VL: B4 VL with S7T, R26S, S28G, S32N, V51L, S96N, Y101P
notes: as for B1

OD450 at 0.0001 nM (monkey GPC3-His protein [1]): 0.27 OD450
OD450 at 0.001 nM (monkey GPC3-His protein [1]): 0.28 OD450
OD450 at 0.01 nM (monkey GPC3-His protein [1]): 0.58 OD450
OD450 at 0.1 nM (monkey GPC3-His protein [1]): 1.8 OD450
OD450 at 1 nM (monkey GPC3-His protein [1]): 2.22 OD450
OD450 at 10 nM (monkey GPC3-His protein [1]): 2.24 OD450
OD450 at 100 nM (monkey GPC3-His protein [1]): 2.25 OD450
Kd (human GPC3-His protein): 20.4 nM
koff (human GPC3-His protein): 0.00327 s⁻¹
kon (human GPC3-His protein): 161000 M⁻¹ s⁻¹
Kd (monkey GPC3-His protein [2]): 13.5 nM
koff (monkey GPC3-His protein [2]): 0.0038 s⁻¹
kon (monkey GPC3-His protein [2]): 281000 M⁻¹ s⁻¹
B7: F2.23.8 (antibody, human IgG1, kappa, V domains shown)
VH: B5 VH with I28T, S30T, I34M, C47W, I48F, V51I, K65R, G66A, F95Y, T115A
VL: B4 VL with S7T, R26S, H39Q, V51L, S81T, G105S
notes: as for B1

Source: US20260116991A1 (HAINAN SIMCERE ZAIMING PHARMACEUTICAL, published 2026)
